Assay results published in the DeepSol protein solubility set.

Experiment: soluble on expression in E. coli; label from the status in PepcDB or PDB records

| Sequence | soluble on expression in E. coli |
| --- | --- |
| MSLNGIGSYEYCGRRISMQDSILVGNNFFGDASSLFGIFDGHGGDYGSCFISKEIQKSLEKLRGRALTKEVFENEIISAIQNINTLMEQNNMTDGATSVIVASTKTHYLIANIGDSRAIIIRRTETSPIPMKDIDDETQQTLRPKSPSKLVLPKKTLKGKLGWSGAGSSKTTNQIEVNFDYIGGGRIEVEALTHDHKPSYQEDRQRIRESGNYISDQEKVNGYISVTRAIGDVKCKAFVSCIPEFSEVARRSSDCFVICACDGVWDVFSNEEIGNLVMANEQMNCTELAKLIVDIAYCRLSSDNISCIVFNCQDSEGHHHHHH | soluble |
| MAQVKTQRLYYSLKDYFKEKYGKRVQKITVALPFTCPNRDGTKGRGGCTYCYDGSKPSMLSPVIPLEVQIKEGIERAKKKYGEDIYFTIYYQSYTNTYADIETLKKVYDTALKFEGVVGIDVGTRPDCAPEEVLDLLEYYANKGLEVWVEYGLQSANFETLKKINRQHGVSDFVDAVLRTKKRNLKVCAHMIIGLPGETREDFIETAKLIASLPIDGIKIHPLHVIKGTVMEKQYLNEEFKTLTLEEYAEYCADVIELLPPDMVVHRITGETDEERLIAPEWCTFKYKNAVIQKVRETLERRGTYQGARYPFYKYGVLEHHHHHH | soluble |
| GILAEAHGTRPDLTDQPLPDADHTWYTDGSSLLQEGQRKAGAAVTTETEVIWAKALPAGTSAQRAELIALTQALKMAEGKKLNVYTDSRYAFATAHLTSEGKEIKNKDEILALLKALFLPKRLSIIHCPGHQKGHSAEARGNRMADQAARKAAITETPDTSTLL | soluble |
| MSMLKKTKEFFGLAPYEAEHEDAYYADEPRYEGTAAYAPEYRERDYGYAPEAPAPVAPSPAPRSYQSTIVPVELHSFEDAQVIGGAFRDGDAVVFDMSLLSREEARRIVDFAAGLCFALRGKMQKIDSVTFAVVPELSNISTSELERAARIRAAALEHHHHHH | soluble |
| MEAVRPDSCESGPAAPRAEERPAPEARVHFRVTRFIMEAGVKLGMQSIPIATACTIYHKFFCEINLDAYDLYLVAMSSIYLAGKVEEQHLRTRDIINVSHRYFNPGSEPLELDSRFWELRDSIVQCELLMLRVLRFQVSFQHPHKYLLHYLISLKNWLNRYSWQRTPISVTAWALLRDSYHGGLCLRFQAQHLAVAVLYLALQVYGVEVPAEGEAEKPWWQVFSDDLTKPIIDNIVSDLIQIYTMDTEIP | not soluble |
| MGSDKIHHHHHHMVLPGFFVPVKGWCPLPGVVIFTDVPAVVPATVSAHEAACPAGSPVLPRVSGLPPLRDGSRGRDCPMGASHVWDLPFSPPAGAALPCRRSRSHGLAPAPRVYGMLLVRAWRCSMDRDTVAGLMADALLERRFRHNDGAHPALAALRELAVNQGTDAGRRMVADDPHEVGSPPLSPIDPVELLQHDGALPSLPTVYVELRQRLADPDCSVREAAEVITRDAGLTAWLLRVVNSASYGLSGRVDTVTQAVAVVGMRQLETMVASGMLQSLMRSVPRGLVDMERLWRHSLAVGGAAREIWRLMGRPDPERLFVAGVLHDVGYLAFVMMAPQKAAQLVPRLRASHLPGHLAERELLGFDHAKLGGMLLHKWNMPVPLVMSVLRHHEPESVPSMPEPSVIHLADIVARAMGYGPDAESAVPPLSASAWEASGLTPQHLEAVANAMTAMVDDLGTAVMCTTV | not soluble |
| MGSDKIHHHHHHMETIETVQRFLEHMAWYATPVPASAISFLAAGEYNENWRIRHEGRDEVLRVNHGSQLRFADQIGYEYAVLRAVHPSGVTPRALRVKSRPRHLSGGALLMEYLPGRPLDYRTDLEAAAHTFAAVHSVVVPRGCPLLRQPDPVADIAADGLRLIHRFPDHPRTDVRDALLRYHERVVRLGEDTRALFEGERQVIANTEVNSGNFLVHDGVARLVDWEKAVVTPRYQDLGHFLAPTTTLWKTDTVLDEADRRRFLAAYRDALTRLAGRETVADCHFDTTDTAEGVTHEAAFHTTAPDAPGGQPHGDMAPDVPDLDALAVRTDVLVRAVLLRGLAWCYMAWQEYATDRRPLAHPDTLRTIERYLAEVSWFLR | not soluble |
| MSLKPVMIIQFSASEGPGHFGDFLAGEHIPFQVLRMDRSDPLPAEIRDCSGLAMMGGPMSANDDLPWMPTLLALIRDAVAQRVPVIGHCLGGQLLAKAMGGEVTDSPHAEIGWVRAWPQHVPQALEWLGTWDELELFEWHYQTFSIPPGAVHILRSEHCANQAYVLDDLHIGFQCHIEMQAHMVREWCSISPEELKGGAEADEGHHHHHH | not soluble |
| MGSDKIHHHHHHENLYFQGAVDLDREGRDPAYVESIVKRSQKIVDKLELTDTVAAREVTTIIANRYFKLNDIYETRDAKVKLAKETLTGDAKQEAVKAAEAEKDAALYRTHFAFPADLSLYLDAKQIDAVKDGMTYGVVMVTYKATVDMIPTLKEEEKAQIMAWLVEAREFAMDAENSNKKHAAFGKYKGRINNYLSKRGYDLVKERKAWYERIKARGGKI | soluble |
| MPYVTVKMLEGRTEEQKKALAEKVTAAVSETTGAPEENIVVFIEEMSKNHYAVGGKRLSDK | not soluble |
| MAAHGGSAASSALKGLIQQFTTITGASESVGKHMLEACNNNLEMAVTMFLDGGGIAEEPSTSSASVSTVRPHTEEEVRAPIPQKQEILVEPEPLFGAPKRRRPARSIFDGFRDFQTETIRQEQELRNGGAIDKKLTTLADLFRPPIDLMHKGSFETAKECGQMQNKWLMINIQNVQDFACQCLNRDVWSNEAVKNIIREHFIFWQVYHDSEEGQRYIQFYKLGDFPYVSILDPRTGQKLVEWHQLDVSSFLDQVTGFLGEHGQLDGLSSSPPKKCARSESLIDASEDSQLEAAIRASLQETHFDSTQTK | not soluble |
| MLCAQTFSEEDFRIRGYVDIHRLDTTIRLALIYSTTDNFVGEDMYGDFDKAYFEKGFAERIHQAQRLLRKEHPDYSLLIYDASRPISIQRRMYTLVKGTSKAVYVANGNRGGKHNYGVAVDLTIVDRDGKPLDMGTPVDHFGRAAHVGQEERLAADGLISREAVRNRRLLRRIMKSVGLVPYRREWWHYELPESMSHTRSHYRLLDF | not soluble |
| MGSDKIHHHHHHMAATPRKLSSKEVAALVGNLMEASESTSLENGLEVRPYAFGENELNQLGDYHALRIINERFCRTARDVFLPMLRLQPRISSFPPEVRSFDDYRSSQDNFVSITASRIEELRGNQMIVIPPPFISLLTDSYYGGQIRHVPTTRTEFTATEERVIELVTDRLNVALQVAWRDLMALTFTVVSREESMQFASFVDGEDMVVNCSFMVQLPNTEPASFDILYPLQTLKPISSQLRSRMQSDFVDDDRSWREKLERAILSIPLTLSARLCEPEVPLRQLMQMQPGDVLPVHLTEAVSLLVEGQPIFEAAPGERGGQAALNLTRRHVRS | not soluble |
| MSRSSVTGKEFVIRYVFNDVSNMNENDMRISTVEEYFNVPWIFQIQRNNGNLGIYLRCRKLKGQEMWSMFTELELKLISVYSDTRDQKCKTDMCFGHDSGKFYSSYGWSEFISWNELETSFMDAGSITVEARVIINKSIGFYTPKLMNFDEKKKEYSDIVVLVDGQRFYLLKKFLAFHSTFFESLFLGGFYEAKLTEVPLYDIDVDDFQKFLEVLYGFPVINDNTVEGILLLADMYQTPLVSELCEDFLIQTTGKTYKKKLQMAIKFNLENLKQFCISMIKSPFDLRSMIPSDISSIDHSTLAALFTKSLTLMK | not soluble |
| AHHHHHHGSTLRLLNDFVKDKLFGETVLVENNSYLGVETLLFVIFKLGEELNVPILVEDVLDTFSIYKKHLEMLGLKTPENIKILKIGGSEEGKGVVKRIPFDFDISRYLLEYGKSFEDVSPKEKFIDLVFGLDRFFILIDNLIDTAKLLNSIKNYIHNENRTAFYFIEANLLKATKPIILYYLEDIATSVVRINQEKNILTFEPVKDIWSVRNKINQISISFGDLFRETL | not soluble |
| MMTGLTLLSCSTENDEFKKELPPTEQPSEPTGALLERFSIDQLPAKTIYALGESIDLTGLKVTGEYDDGKQRSVNVAPKQISGFSSSVPVDKQEVTITIEGKQKSFTIQVAPVRVENGVLTEVLKGYDEIILPNSVKSIPKNAFNGSKINKVTLNEGLKSIGDMAFFNSTIQEVIFPSTLEQLEENIFYYCYHLKKADLSRTKLTKLPASTFVYAGVEEVLLPATLTEIDAQAFLKTSQLKTIEIPENVRTIGLEAFRESSITTVKLPNGVTNIAQRAFYYCPELTEVTTYGTVFNDDPEAMIHPYCLEGCPQLTRFEIPQSIRILGQGLLGGNRKVTQLTIPANVTQINFSAFNNTGIKEVKVEGITPPQVFEKIWYGFPDDITVIRVPAESVEKYKTAAGWQDYTNKIQASLEHHHHHH | soluble |
| KQLLTLKIKCSNQPERQILEKQLPDSMTVQKVKGLLSRLLKVPVSELLLSYESSKMPGREIELENDLQPLQFYSVENGDCLLVR | soluble |
| MSLCQEKEQDIQKEISYAEKHNNQRRIEGLNKALSEVRANCTDSKLRAEHQKKIAEQKEEVAERQRDLAEAKAKGDADKIDKRERKLAEAQDELKKLEHHHHHH | not soluble |
| PEWDEYIAEQIESGALGEDEGAEFLERWMVQKQHPLDINTLTREDLEQFPFLNEFQIRRFLLYRHAHPEGFDSIWVLSEIAGWDRRTCLLLWPMLTVQKRSESAAASFREILSYARHDVSVHTDAILQQQEGYRPDSRHPYRGDPWGGGLRWSYAMGNRFSLGLTASKDRGEPAFDKRRKGFDSYSAHFFMEGKGAVRAVALGDYRIG | not soluble |
| MAHHHHHHMPPQQPVGIMDNEEEFPVEEPPPMDPLIKLLHLRHTYTSQYVDEAVREEVKAAMLKIAHEHNMAPYLRFASEMFCWTVDEEQLRAMDAINATKLEELDARIKDAQENLGDVEVRDGLLARCHHFARIGDMEECLKFNNECSGKTLAAGSKLDLCFQRILLGLAFSDNEVAANGICSAHRLMKEGDWERRNRLKVYEGLFYVYIRDFKKGSELLLDSISTFAASELMDFNEFILVTVVASLPVLSRSQLKKCILDSPEVHSANIKNVFHLVTAIYECRYKEVFPTLDAVCQQLRGIVYLSQHVNYFFREVRVLVFKQFLDSYSSVTLKSMSNAFGIPSPVLDSMLGTLISNERIACKMDRVSDSITTYRGDTTNLDYHRIVKNGDLLLNRIQKLSRLAEV | not soluble |
| GSEEHCAPNKEPVKYGELVVLGYNGALPNGDRGRRKSRFALYKRPKANGVKPSTVHVISTPQASKAISCKGQHSISYTLSRNQTVVVEYTHDKDTDMFQVGRSTESPIDFVVTDTISGSQNTDEAQITQSTISRFACRIVCDRNEPYTARIFAAGFDSSKNIFLGEKAAKWKNPDGHMDGLTTNGVLVMHPRGGFTEESQPGVWREISVCGDVYTLRETRSAQQRGKLVESETNVLQDGSLIDLCGATLLWRTADGLFHTPTQKHIEALRQEINAARPQCPVGLN | soluble |
| MEMAAAVRKCATFIEEKIGKHIDVTTMAYNRLMNHIRHMVSRAATGEKLKVDLNQFIEKNYPESFALAGDICKELGKDLNHEFLDNETGYLAIHIEQIKCDEMVSE | not soluble |
| MSLATAAPFVSDQAEAKGFVEGSTLDLKLRNYYYNRDRKNNPAPGGRSDKDWTQGIWANFSTGYTQGTIGVAAEAFGYGALRLWGPDKYSGSGNLVTDSNGDNEATQGKFGGAVKFRVSKTELKVGDMQPTSPVFAVGGSRILPQTASGLSLQSSEIAGLDLEAGHFYSGTSQDDTSHNGSIWATYANGFNGLKANSADFLGGKYAITDGLGVAFYAAKLEDIWDQYYGNVNYALPLGNDQSLAFDVNLYRTLDEGSSKADSINNTTYSASAAYSFLAAHTVTVAYQKVDGDTPFDYIGIGDNNRGGDSIFLANSVQYSDFNGPGEKSWQIRYDLNMTPYGVPGLSFMTRYLNGDNIDGTKVDASSLYANMYGADGKHHETNLEAKYVVQAGPAKDLSFRMRQAWHRGNDAQSDGDVNEFRLIVDYPISILKGIITITTDPNSSSVDKLAAALEHHHHHH | soluble |
